According to patent US20220275103A1 (CENTRICSBIO, published 2022):

T1: mouse CD300c antigen (mouse)
T1 sequence (A2A7V7 whole entry, looked up): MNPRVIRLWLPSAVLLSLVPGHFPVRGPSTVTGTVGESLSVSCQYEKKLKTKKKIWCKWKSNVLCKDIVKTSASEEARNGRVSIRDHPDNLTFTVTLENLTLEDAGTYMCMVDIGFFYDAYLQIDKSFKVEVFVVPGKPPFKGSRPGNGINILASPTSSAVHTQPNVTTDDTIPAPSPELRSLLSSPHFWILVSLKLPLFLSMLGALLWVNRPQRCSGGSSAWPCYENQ

T2: CD300a antigen (12449-H08H, Sino Biological) (UniProt Q9UGN4 18-180)
T2 sequence (looked up): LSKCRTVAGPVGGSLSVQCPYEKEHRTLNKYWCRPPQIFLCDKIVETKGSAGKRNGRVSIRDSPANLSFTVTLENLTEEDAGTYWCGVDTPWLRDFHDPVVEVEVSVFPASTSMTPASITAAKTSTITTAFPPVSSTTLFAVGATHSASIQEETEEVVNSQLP

T3: ICOS Ligand[B7-H2] (Sino Biological) (UniProt O75144 19-258, limits assumed)
T3 sequence (looked up): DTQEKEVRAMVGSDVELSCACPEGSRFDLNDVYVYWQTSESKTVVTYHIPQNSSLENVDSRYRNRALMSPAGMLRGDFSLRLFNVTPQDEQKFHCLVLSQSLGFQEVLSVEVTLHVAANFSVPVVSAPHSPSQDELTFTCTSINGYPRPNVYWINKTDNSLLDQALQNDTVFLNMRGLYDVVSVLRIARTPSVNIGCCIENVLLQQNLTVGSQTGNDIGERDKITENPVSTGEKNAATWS

T4: CD276[B7-H3] (Sino Biological) (UniProt Q5ZPR3 29-461, limits assumed)
T4 sequence (looked up): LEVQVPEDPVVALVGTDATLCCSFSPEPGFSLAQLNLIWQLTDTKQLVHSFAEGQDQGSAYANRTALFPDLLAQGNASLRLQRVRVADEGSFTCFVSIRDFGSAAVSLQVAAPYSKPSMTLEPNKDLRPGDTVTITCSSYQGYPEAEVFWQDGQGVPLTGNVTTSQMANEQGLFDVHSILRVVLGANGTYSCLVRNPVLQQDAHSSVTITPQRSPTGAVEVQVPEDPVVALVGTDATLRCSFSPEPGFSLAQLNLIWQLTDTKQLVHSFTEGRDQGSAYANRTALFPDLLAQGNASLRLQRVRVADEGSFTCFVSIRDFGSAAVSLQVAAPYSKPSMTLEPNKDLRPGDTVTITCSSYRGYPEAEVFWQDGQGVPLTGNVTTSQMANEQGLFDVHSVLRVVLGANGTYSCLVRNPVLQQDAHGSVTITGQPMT

T5: B7-H4 (Sino Biological) (UniProt Q7Z7D3 25-258, limits assumed)
T5 sequence (looked up): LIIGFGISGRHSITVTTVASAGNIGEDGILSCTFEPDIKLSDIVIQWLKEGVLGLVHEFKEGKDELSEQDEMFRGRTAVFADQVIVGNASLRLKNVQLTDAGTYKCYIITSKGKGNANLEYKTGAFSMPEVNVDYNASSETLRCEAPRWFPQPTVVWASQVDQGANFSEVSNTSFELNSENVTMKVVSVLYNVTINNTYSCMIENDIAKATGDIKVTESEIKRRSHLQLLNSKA

T6: CD80[B7-1] (Sino Biological) (UniProt P33681 35-242, limits assumed)
T6 sequence (looked up): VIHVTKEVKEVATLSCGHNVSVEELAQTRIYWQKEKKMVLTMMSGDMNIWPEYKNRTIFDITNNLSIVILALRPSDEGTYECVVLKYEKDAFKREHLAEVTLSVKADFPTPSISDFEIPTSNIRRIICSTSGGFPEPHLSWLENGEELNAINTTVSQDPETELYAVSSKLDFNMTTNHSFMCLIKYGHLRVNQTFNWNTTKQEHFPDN

T7: CD86[B7-2] (Sino Biological) (UniProt P42081 24-247, limits assumed)
T7 sequence (looked up): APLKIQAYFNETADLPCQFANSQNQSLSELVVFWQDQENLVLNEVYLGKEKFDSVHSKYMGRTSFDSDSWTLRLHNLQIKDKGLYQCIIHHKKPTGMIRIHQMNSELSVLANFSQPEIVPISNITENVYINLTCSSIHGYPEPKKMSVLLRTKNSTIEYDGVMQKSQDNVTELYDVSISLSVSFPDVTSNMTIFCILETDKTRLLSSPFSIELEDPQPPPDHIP

T8: CD273[PD-L2] (Sino Biological) (UniProt Q9BQ51 20-219, limits assumed)
T8 sequence (looked up): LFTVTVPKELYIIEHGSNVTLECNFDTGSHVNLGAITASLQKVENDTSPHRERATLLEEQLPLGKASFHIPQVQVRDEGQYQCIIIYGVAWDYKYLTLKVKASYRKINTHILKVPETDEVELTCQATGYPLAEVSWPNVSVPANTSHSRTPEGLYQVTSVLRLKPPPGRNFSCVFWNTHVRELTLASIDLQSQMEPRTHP

B1: CL7 (antibody, V domains shown)
VH: EVQLLESGGGLVQPGGSLRLSCAASGFTFSRYAMSWVRQAPGKGLEWVSAISGSGGSTYYADSVKGRFTISRDNSKNTLYLQMNSLRAEDTAVYYCARSSQGIFDIWGQGTLVTVSS
VL: QSVLTQPPSASGTPGQRVTISCSGNNIGTRRVHWYQQLPDTAPKLLIYSKNNRPSGVPDRFSGSKSGTSASLAISGLRSEDEADYYCAAWDDSLSGPVFGGGTKLTVL
notes: VH3VL1 phage library clone; also called anti-CD300c monoclonal antibody CL7; CB301 antibody CL7
B2: CL10 (antibody, V domains shown)
VH: EVQLLESGGGLVQPGGSLRLSCAASGFTFSSYGMHWVRQAPGKGLEWVSAISGSGGSTYYADSVKGRFTISRDNSKNTLYLQMNSLRAEDTAVYYCASGYGLMDVWGQGTLVTVSS
VL: QSVLTQPPSASGTPGQRVTISCTRSSGIIASNYVQWYQQLPGTAPKLLIYRNNQRPSGVPDRFSGSKSGTSASLAISGLRSEDEADYYCSSYAGNNNLVFGGGTKLTVL
B3: SL18 (antibody, V domains shown)
VH: RVQLLESGGGLVQPGGSLRLSCAASGFTFSDYHMHWVRQAPGKGLEWVSTISSSGGYTYYAESVKSRFTISRDNSKNTLYLQMNSLRAEDTAVYYCARSIRLPLDYWGQGTLVTVSS
VL: QSVLTQPPSASGTPGQRVTISCSGNNIGSKGVHWYQQLPGTAPKLLIYEDSKRPSGVRDRFSGSKSGTSASLAISGLRSEDEADYYCQSYDSTKGVVFGGGTKLTVL

Experiments:
[1] = target: T1, mouse CD300c antigen; assay: cell-based or functional assay
[2] = target: T2, CD300a antigen (12449-H08H, Sino …); assay: binding ELISA, antigens coated at 8 ug/mL, HRP anti-Fc IgG, O.D 450 nm
Experimental: (§1) Binding ELISA was performed to identify that the anti-CD300c monoclonal antibody CL7 specifically binds only to CD300c without binding to other B7 family proteins. More specifically, each of CD300c antigen, CD300a antigen, or seven B7 family protein antigens (PD-L1 [B7-H1] (Sino Biological), ICOS Ligand[B7-H2] (Sino Biological), CD276[B7-H3] (Sino Biological), B7-H4 (Sino Biological), CD80[B7-1] (Sino Biological), CD86[B7-2] (Sino Biological), CD273[PD-L2] (Sino Biological)) in a coating buffer (0.1 M sodium carbonate, pH 9.0) was coated on an ELISA plate at a concentration of 8 μg/mL per well, and then incubation was performed at 2° C. to 8° C. overnight so that the antigen bound to the plate. The unbound antigen was removed by performing washing with PBST three times, and then […] of blocking buffer (5% skim milk in PBST) was added to each well. Subsequently, blocking was performed at room temperature for 1 hour, and then washing was performed again with PBST. Thereafter, CL7 was diluted in quadruplicate with PBS, and subjected to reaction with the antigen at room temperature for 1 hour for antigen binding. 1 hour later, washing with PBST was performed three times. Then, a secondary antibody (HRP-conjugated anti-Fc IgG) diluted to 4 μg/mL in blocking buffer was added thereto, and reaction was allowed to proceed at room temperature for 1 hour. Subsequently, the unbound antibody for detection was removed using PBST, and then a TMB solution was added thereto. Reaction was allowed to proceed for 10 minutes for development. Then, 2 N sulfuric acid solution was added to terminate the development, and the absorbance was measured at 450 nm to identify the antibody that specifically binds to the CD300c antigen.

[3] = target: PD-L1 [B7-H1] (Sino Biological) (UniProt Q9NZQ7 19-239, limits assumed); assay: as above
Sequence of PD-L1 [B7-H1] (Sino Biological) (Q9NZQ7 19-239 limits assumed): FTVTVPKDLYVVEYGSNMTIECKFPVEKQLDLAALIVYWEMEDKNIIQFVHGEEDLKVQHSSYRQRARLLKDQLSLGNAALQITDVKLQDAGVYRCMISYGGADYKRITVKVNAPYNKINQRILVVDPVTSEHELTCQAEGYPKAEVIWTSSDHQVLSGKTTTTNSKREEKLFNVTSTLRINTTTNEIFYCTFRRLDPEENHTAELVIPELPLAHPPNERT
Experimental: as §1

[4] = target: T3, ICOS Ligand[B7-H2] (Sino Biological); assay: as above
Experimental: as §1

[5] = target: T4, CD276[B7-H3] (Sino Biological); assay: as above
Experimental: as §1

[6] = target: T5, B7-H4 (Sino Biological); assay: as above
Experimental: as §1

[7] = target: T6, CD80[B7-1] (Sino Biological); assay: as above
Experimental: as §1

[8] = target: T7, CD86[B7-2] (Sino Biological); assay: as above
Experimental: as §1

[9] = target: T8, CD273[PD-L2] (Sino Biological); assay: as above
Experimental: as §1

Binder	cancer cell proliferation inhibitory effect on CT26 mouse colorectal cancer cells (CCK-8, 10 ug/mL antibody, 5 days), higher than the control group [1]	binding result [2]	binding result [3]	binding result [4]	binding result [5]	binding result [6]	binding result [7]	binding result [8]	binding result [9]
B1	66%	no binding (tested: log10 about 0.4 (about 2.5 ug/ml))	no binding (tested: log10 about 0.4 (about 2.5 ug/ml))	no binding (tested: log10 about 0.4 (about 2.5 ug/ml))	no binding (tested: log10 about 0.4 (about 2.5 ug/ml))	no binding (tested: log10 about 0.4 (about 2.5 ug/ml))	no binding (tested: log10 about 0.4 (about 2.5 ug/ml))	no binding (tested: log10 about 0.4 (about 2.5 ug/ml))	no binding (tested: log10 about 0.4 (about 2.5 ug/ml))
B2	15%								
B3	38%								
